No end group written: not given here.
Experiments:
[1] = molecular target: T1, recombinantly expressed human CETP N-terminally fused to GST (GST-CETP) (Homo sapiens, UniProt P11597); assay: Protein ELISA: anti-protein titers of sera from vaccinated mice; type: in vivo, Balb/c mice; settings: for anti-protein titers: median values (n = 5), Balb/c mice s.c. three times 15 μg net peptide coupled to KLH, Alum, GST-CETP ELISA, titre = serum dilution at 50% of ODmax
T1 construct: not only antibodies directed to the peptide itself but also to the mature CETP protein; GST (N); made in house
T1 sequence (P11597 18-493): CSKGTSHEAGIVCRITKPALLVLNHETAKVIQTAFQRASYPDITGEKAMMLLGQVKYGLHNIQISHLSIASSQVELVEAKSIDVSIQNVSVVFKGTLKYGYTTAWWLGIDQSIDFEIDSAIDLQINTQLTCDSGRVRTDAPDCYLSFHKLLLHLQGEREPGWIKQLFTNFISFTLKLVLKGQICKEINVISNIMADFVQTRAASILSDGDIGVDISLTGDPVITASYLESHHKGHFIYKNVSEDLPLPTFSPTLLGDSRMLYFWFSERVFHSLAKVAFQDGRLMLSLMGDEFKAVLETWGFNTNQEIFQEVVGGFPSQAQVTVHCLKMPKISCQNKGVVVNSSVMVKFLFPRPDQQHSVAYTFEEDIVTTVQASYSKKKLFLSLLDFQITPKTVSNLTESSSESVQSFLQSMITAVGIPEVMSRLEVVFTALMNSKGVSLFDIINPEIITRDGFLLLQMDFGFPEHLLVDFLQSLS
Description: (§1) The peptides were conjugated via the heterobifunctional linker GMBS (4-Maleimidobutyric acid N-hydroxysuccinimide ester) to KLH (Keyhole Limpet Hemocyanin).
(§2) 15 μg of the peptides were suspended with aluminum hydroxide (end concentration of aluminum hydroxide was 0.2%). As buffer mannitol/phosphate was used.
(§3) 5 Balb/c mice were subcutaneously immunized. Mice had access to food and water ad libitum and were kept under a 12 h light/dark cycle. Age of mice at the beginning of experiments was usually 8 to 10 weeks.
(§4) Mice were injected three times in 2 week intervals with 15 μg of net peptide coupled to KLH and adsorbed to Alum as adjuvant in a volume of 1 ml in total via the s.c. route.
(§5) Blood was taken approximately 2 weeks after the final injection.
(§6) To determine the immunogenicity of the vaccines, 96-well Nunc-Maxisorb plates were coated with 1 μM of the respective peptides coupled to bovine serum albumin (BSA) in 0.1 M NaHCO3, pH 9.2-9.4. An irrelevant peptide was used as negative control. KLH was included as positive control and coated at a concentration of 1 μg/ml. Unspecific binding was blocked by incubation with blocking buffer (5% BSA in PBS). Appropriate serum dilutions were added to the wells, serially diluted 1:2 fold and incubated for approximately 1 hour at 37° C. On every ELISA plate a standard serum was included as internal control. Bound antibodies were detected by incubation with biotinylated goat anti-mouse IgG, followed by horseradish peroxidase coupled to Streptavidin. As substrate ABTS was added and the optical density (OD) at 405 nm was measured in a Microwell plate-reader. The titres were defined as the dilution of the serum where 50% of the ODmax in the assay are reached.
The antibodies induced by the vaccination were tested for their ability to bind to recombinantly expressed human CETP N-terminally fused to GST (“GST-CETP”) using the protocol described under “peptide ELISA”.

[2] = tested on: respective peptides coupled to bovine serum albumin (BSA); assay: Peptide ELISA: anti-peptide titers of sera from vaccinated mice; type: in vivo; settings: median values (n = 5); Balb/c mice s.c. three times 15 μg net peptide coupled to KLH, Alum; titre = serum dilution at 50% of ODmax
Description: as §1, §2, §3, §4, §5, §6

[3] = molecular target: T2, CETP activity of human serum (Homo sapiens, UniProt P11597); assay: CETP activity inhibition assay (Roar kit) with sera from vaccinated mice; type: biochemical; settings: n=5 mice per group; human serum as CETP source mixed with same amount of serum from vaccinated mice
T2 construct: Human serum was used as CETP source; from tissue; host or cells: human serum
T2 sequence (P11597 18-493): T1 sequence (P11597 18-493)
Description: as §3, §4, §5
CETP activity was determined with the Roar CETP activity assay kit (RB-CETP; Roar Biomedical) by measuring the transfer of a fluorescently labeled substrate according to the protocol provided by the manufacturer. […] Human serum was used as CETP source and was mixed with the same amount of serum from vaccinated mice together with donor and acceptor particles (components of the CETP activity assay kit).
Mouse sera containing CETP-inhibiting antibodies lead to a decrease of the signal in this assay. Sera from mice injected with irrelevant peptide served as negative control.

anti-protein titers [1] | no. of mice with antibodies inhibiting CETP activity [3] | Substance | anti-peptide titers [2] | formation of antibodies directed to mature CETP protein (in words) ([1]; vaccinated Balb/c mice, protein ELISA)
800 | 3 of 5 | 1 (YTTAWWLGIDQS) [compound 1] | 70,000 | 
50 |  | 3 (LHLQGEREPGWIKQ) [compound 3] | 97,000 | 
0 |  | 4 (DEFKAVLETWG) [compound 4] | 140,000 | 
0 |  | 6 (ESIQSFLQSMITA) [compound 6] | 69,000 | 
2,200 | 4 of 5 | 9 (TAWWLGIDQS) [compound 9] | 173,000 | 
1,100 | 5 of 5 | 11 (WWLGIDQS) [compound 11] | 330,000 | 
600 | 1 of 5 | 14 (YTTAWWLGID) [compound 14] | 630,000 | 
300 | 0 of 5 | 15 (YTTAWWLGI) [compound 15] | 111,000 | 
0 |  | 16 (YTTAWWLG) [compound 16] | 74,000 | 
900 | 4 of 5 | 18 (TTAWWLGIDQ) [compound 18] | 216,000 | 
1,300 | 3 of 5 | 19 (TTAWWLGID) [compound 19] | 114,000 | 
300 |  | 20 (TTAWWLGI) [compound 20] | 124,000 | 
0 |  | 21 (TAWWLGI) [compound 21] | 99,000 | 

The next lines start with the substance.

Substance | anti-protein titers [1] | no. of mice with antibodies inhibiting CETP activity [3] | anti-peptide titers [2] | formation of antibodies directed to mature CETP protein (in words) ([1]; vaccinated Balb/c mice, protein ELISA)
2 (KAMMLLGQV) [compound 2] | 0 |  | 66,000 | 
5 (GFNTNQEIFQEVVGGFP) [compound 5] | 100 |  | 100,000 | 
7 (YGYTTAWWLGIDQSID) [compound 7] | 500 | 3 of 5 | 33,000 | 
8 (TTAWWLGIDQS) [compound 8] | 1,200 | 4 of 5 | 89,000 | 
10 (AWWLGIDQS) [compound 10] | 1,700 | 5 of 5 | 191,000 | 
12 (WLGIDQS) [compound 12] | 0 |  | 153,000 | 
13 (YTTAWWLGIDQ) [compound 13] | 1,200 | 1 of 5 | 143,000 | 
17 (YTTAWWL) [compound 17] | 0 |  | 94,000 | 
22 (FPRPDQQHSV) [compound 22] | 0 |  | 229,000 | 
C-YTTAWWLGIDQS (CYTTAWWLGIDQS; also: conjugated to KLH carrier) [SEQ ID No. 1, CETP fragment AA101-112, N-terminal cysteine, conjugated to KLH] |  |  |  | leads to the formation of not only antibodies directed to the peptide itself but also to the mature CETP protein

Reference: patent publication US9085636B2, “CETP fragments” (AFFIRIS AG, priority 2011, dated 2015)
